Details: Bacillus amyloliquefaciens, pH 6.3, 25 °C, Fluorescence, MES 450 mM, reversible: yes, whole UniProt chain shown

B1: Ribonuclease wild type, P00648 (protein)
chain: MMKMEGIALKKRLSWISVCLLVLVSAAGMLFSTAAKTETSSHKAHTEAQVINTFDGVADYLQTYHKLPDNYITKSEAQALGWVASKGNLADVAPGKSIGGDIFSNREGKLPGKSGRTWREADINYTSGFRNSDRILYSSDWLIYKTTDHYQTFTKIR
denaturant m value (GdnHCl): 4.4 kcal/mol/M | denaturant midpoint (higher = more stable) (GdnHCl): 2 M | unfolding free energy (GdnHCl): 36.8 kJ/mol | denaturant m value (Urea): 1.92 kcal/mol/M | denaturant midpoint (higher = more stable) (Urea): 4.58 M | unfolding free energy (Urea): 36.8 kJ/mol
